Paper PMC8801479
Blank lines part the entries; values can stand above or below the substance they belong to.

How the values were obtained:
[1] = molecular target: the GF and c-AMH; assay: ELISA; c-AMH or GF captured on mAb-C1; various concentrations of AMHR2-Fc/Fc in solution; bound AMHR2-Fc/Fc detected with antihuman-Fc Ab conjugated to HRP; quadratic fit
[2] = molecular target: activin A growth factor growth factor domain (Homo sapiens) (UniProt P08476); conditions: cited from earlier work
[3] = molecular target: anti-Müllerian hormone growth factor (AMH GF), the mature C-terminal domain (human) (UniProt P03971); assay: ELISA; c-AMH diluted to 1 ng/ml (8.8 pM) in PBS with 1% BSA and 1% goat serum, 10 days at room temperature; ELISA that detects only intact complex; Kd calculated from the fraction of intact complex
[4] = molecular target: anti-Müllerian hormone growth factor (AMH GF), the mature C-terminal domain (human) (UniProt P03971); assay: ELISA; AMHR2-Fc/Fc captured on goat antihuman Fc Ab on the plate; c-AMH 0.03 to 52.83 nM; bound AMH detected with nonbiotinylated mAb-C1 or mAb-N1 and antimouse-Fc-HRP, added one by one or as a preformed complex; data fit globally to the equations of Perelson and DeLisi for ligand-induced receptor dimerization, with the quadratic equation for K_mono and Kbi; [R0] = 0.1 nM
[5] = molecular target: AMHR2-Fc/Fc, heterodimer of one AMHR2-Fc chain (extracellular domain of human AMHR2 fused to human IgG1 Fc) disulfide bonded to one Fc-only chain (human) (UniProt Q16671); assay: ELISA; AMHR2-Fc/Fc (0.75 ug/ml) captured on goat antihuman Fc Ab coated on the plate; c-AMH or GF serially diluted, 2 to 4 h; bound AMH detected with biotinylated mAb-C1 (GF) or mAb-N1 (prodomain) and SA-HRP; data fit to the quadratic equation for a reversible association reaction
[6] = molecular target: AMHR2-Fc/Fc, heterodimer of one AMHR2-Fc chain (extracellular domain of human AMHR2 fused to human IgG1 Fc) disulfide bonded to one Fc-only chain (human) (UniProt Q16671); assay: ELISA; AMHR2-Fc/Fc captured on goat antihuman Fc Ab on the plate; c-AMH 0.03 to 52.83 nM; bound AMH detected with nonbiotinylated mAb-C1 or mAb-N1 and antimouse-Fc-HRP, added one by one or as a preformed complex; data fit globally to the equations of Perelson and DeLisi for ligand-induced receptor dimerization, with the quadratic equation for K_mono and Kbi; [R0] = 0.1 nM

cleaved anti-Müllerian hormone (c-AMH), the noncovalent complex of the AMH prodomain with the AMH growth factor, sequence (P03971 25-451 limits assumed): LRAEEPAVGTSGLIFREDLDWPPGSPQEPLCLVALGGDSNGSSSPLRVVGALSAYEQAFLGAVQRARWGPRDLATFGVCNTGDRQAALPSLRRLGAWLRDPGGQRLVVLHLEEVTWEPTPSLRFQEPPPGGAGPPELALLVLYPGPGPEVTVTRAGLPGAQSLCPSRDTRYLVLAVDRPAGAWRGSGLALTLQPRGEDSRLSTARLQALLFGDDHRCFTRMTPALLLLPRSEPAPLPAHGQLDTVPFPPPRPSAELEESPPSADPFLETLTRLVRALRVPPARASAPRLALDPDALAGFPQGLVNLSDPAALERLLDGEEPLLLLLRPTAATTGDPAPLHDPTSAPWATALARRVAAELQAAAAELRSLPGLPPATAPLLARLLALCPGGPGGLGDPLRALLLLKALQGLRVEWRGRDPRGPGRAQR
cleaved anti-Müllerian hormone (c-AMH), the noncovalent complex of the AMH prodomain with the AMH growth factor, sequence (P03971 452-560 limits assumed): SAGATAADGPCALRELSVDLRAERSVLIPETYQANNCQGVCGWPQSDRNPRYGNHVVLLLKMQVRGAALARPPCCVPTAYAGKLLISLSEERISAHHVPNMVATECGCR
anti-Müllerian hormone growth factor (AMH GF), the mature C-terminal domain (human), sequence (P03971 452-560): as the sequence (P03971 452-560 limits assumed) above
activin A prodomain prodomain, sequence (P08476 21-310): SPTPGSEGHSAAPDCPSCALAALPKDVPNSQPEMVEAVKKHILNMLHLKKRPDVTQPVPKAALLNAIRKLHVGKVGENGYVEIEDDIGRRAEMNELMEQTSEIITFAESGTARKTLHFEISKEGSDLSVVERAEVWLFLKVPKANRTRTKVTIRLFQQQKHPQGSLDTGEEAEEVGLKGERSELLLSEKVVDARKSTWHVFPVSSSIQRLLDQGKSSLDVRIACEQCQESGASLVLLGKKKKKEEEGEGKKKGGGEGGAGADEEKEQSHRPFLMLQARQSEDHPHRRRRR
activin A growth factor growth factor domain (Homo sapiens), sequence (P08476 311-426): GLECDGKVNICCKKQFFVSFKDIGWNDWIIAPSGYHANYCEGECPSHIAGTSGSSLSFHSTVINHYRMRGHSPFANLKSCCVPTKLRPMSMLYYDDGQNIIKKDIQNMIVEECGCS

Kd [1]: 3 to 4 nM
Substance: AMHR2-Fc/Fc, heterodimer of one AMHR2-Fc chain (extracellular domain of human AMHR2 fused to human IgG1 Fc) disulfide bonded to one Fc-only chain (from UniProt Q16671 18-149; P01857 104-330) (Fc fusion)

Substance: activin A prodomain prodomain (from UniProt P08476)
Kd [2]: 5 nM

Kd [3]: 0.0004 nM
intact complex left after 10 days at 8.8 pM, percent of samples diluted immediately before the assay [3]: 80%
KT (apparent dissociation constant of the receptor-bound AMH complex, at [R0] = 100 pM), at 0.03 nM c-AMH [4]: 7.5 pM
KT (apparent dissociation constant of the receptor-bound AMH complex, at [R0] = 100 pM), at 0.05 nM c-AMH [4]: 22.1 pM
KT (apparent dissociation constant of the receptor-bound AMH complex, at [R0] = 100 pM), at 0.10 nM c-AMH [4]: 24.3 pM
KT (apparent dissociation constant of the receptor-bound AMH complex, at [R0] = 100 pM), at 0.21 nM c-AMH [4]: 36.6 pM
KT (apparent dissociation constant of the receptor-bound AMH complex, at [R0] = 100 pM), at 0.41 nM c-AMH [4]: 38.7 pM
KT (apparent dissociation constant of the receptor-bound AMH complex, at [R0] = 100 pM), at 0.83 nM c-AMH [4]: 45.3 pM
KT (apparent dissociation constant of the receptor-bound AMH complex, at [R0] = 100 pM), at 1.65 nM c-AMH [4]: 26.2 pM
KT (apparent dissociation constant of the receptor-bound AMH complex, at [R0] = 100 pM), at 3.30 nM c-AMH [4]: 10 pM
KT (apparent dissociation constant of the receptor-bound AMH complex, at [R0] = 100 pM), at 6.60 nM c-AMH [4]: 6.1 pM
KT (apparent dissociation constant of the receptor-bound AMH complex, at [R0] = 100 pM), at 13.21 nM c-AMH [4]: 2.7 pM
KT (apparent dissociation constant of the receptor-bound AMH complex, at [R0] = 100 pM), at 26.41 nM c-AMH; taken as a measure of K mono [4]: 1 pM
KT (apparent dissociation constant of the receptor-bound AMH complex, at [R0] = 100 pM), at 52.83 nM c-AMH; taken as a measure of K mono [4]: 0.8 pM
[NCT]/[RL + RLR], fraction-intact AMH complex, at 0.03 nM c-AMH [4]: 0.29
[NCT]/[RL + RLR], fraction-intact AMH complex, at 0.05 nM c-AMH [4]: 0.234
[NCT]/[RL + RLR], fraction-intact AMH complex, at 0.10 nM c-AMH [4]: 0.271
[NCT]/[RL + RLR], fraction-intact AMH complex, at 0.21 nM c-AMH [4]: 0.276
[NCT]/[RL + RLR], fraction-intact AMH complex, at 0.41 nM c-AMH [4]: 0.347
[NCT]/[RL + RLR], fraction-intact AMH complex, at 0.83 nM c-AMH [4]: 0.386
[NCT]/[RL + RLR], fraction-intact AMH complex, at 1.65 nM c-AMH [4]: 0.521
[NCT]/[RL + RLR], fraction-intact AMH complex, at 3.30 nM c-AMH [4]: 0.688
[NCT]/[RL + RLR], fraction-intact AMH complex, at 6.60 nM c-AMH [4]: 0.767
[NCT]/[RL + RLR], fraction-intact AMH complex, at 13.21 nM c-AMH [4]: 0.845
[NCT]/[RL + RLR], fraction-intact AMH complex, at 26.41 nM c-AMH [4]: 0.903
[NCT]/[RL + RLR], fraction-intact AMH complex, at 52.83 nM c-AMH [4]: 0.917
Substance: anti-Müllerian hormone prodomain (N-terminal prodomain of c-AMH) (domain or fragment)

Kd [5]: 0.3 nM
K1 (dissociation constant of the initial monovalent binding step; fit of Figure 5C) [6]: 1.1 nM
K1 (dissociation constant of the initial monovalent binding step; fit of Figure 5D) [6]: 1.1 nM
[CT]/[R0], bound AMH without prodomain, estimate of [RLR]/[R0], at 0.03 nM c-AMH [6]: 0.031
[CT]/[R0], bound AMH without prodomain, estimate of [RLR]/[R0], at 0.05 nM c-AMH [6]: 0.067
[CT]/[R0], bound AMH without prodomain, estimate of [RLR]/[R0], at 0.10 nM c-AMH [6]: 0.091
[CT]/[R0], bound AMH without prodomain, estimate of [RLR]/[R0], at 0.21 nM c-AMH [6]: 0.147
[CT]/[R0], bound AMH without prodomain, estimate of [RLR]/[R0], at 0.41 nM c-AMH [6]: 0.206
[CT]/[R0], bound AMH without prodomain, estimate of [RLR]/[R0], at 0.83 nM c-AMH [6]: 0.284
[CT]/[R0], bound AMH without prodomain, estimate of [RLR]/[R0], at 1.65 nM c-AMH [6]: 0.285
[CT]/[R0], bound AMH without prodomain, estimate of [RLR]/[R0], at 3.30 nM c-AMH [6]: 0.22
[CT]/[R0], bound AMH without prodomain, estimate of [RLR]/[R0], at 6.60 nM c-AMH [6]: 0.199
[CT]/[R0], bound AMH without prodomain, estimate of [RLR]/[R0], at 13.21 nM c-AMH [6]: 0.145
[CT]/[R0], bound AMH without prodomain, estimate of [RLR]/[R0], at 26.41 nM c-AMH [6]: 0.094
[CT]/[R0], bound AMH without prodomain, estimate of [RLR]/[R0], at 52.83 nM c-AMH [6]: 0.086
[NCT]/[R0], intact AMH complex bound (mAb-N1), estimate of [RL]/[R0], at 0.03 nM c-AMH [6]: 0.013
[NCT]/[R0], intact AMH complex bound (mAb-N1), estimate of [RL]/[R0], at 0.05 nM c-AMH [6]: 0.021
[NCT]/[R0], intact AMH complex bound (mAb-N1), estimate of [RL]/[R0], at 0.10 nM c-AMH [6]: 0.034
[NCT]/[R0], intact AMH complex bound (mAb-N1), estimate of [RL]/[R0], at 0.21 nM c-AMH [6]: 0.056
[NCT]/[R0], intact AMH complex bound (mAb-N1), estimate of [RL]/[R0], at 0.41 nM c-AMH [6]: 0.109
[NCT]/[R0], intact AMH complex bound (mAb-N1), estimate of [RL]/[R0], at 0.83 nM c-AMH [6]: 0.178
[NCT]/[R0], intact AMH complex bound (mAb-N1), estimate of [RL]/[R0], at 1.65 nM c-AMH [6]: 0.311
[NCT]/[R0], intact AMH complex bound (mAb-N1), estimate of [RL]/[R0], at 3.30 nM c-AMH [6]: 0.487
[NCT]/[R0], intact AMH complex bound (mAb-N1), estimate of [RL]/[R0], at 6.60 nM c-AMH [6]: 0.654
[NCT]/[R0], intact AMH complex bound (mAb-N1), estimate of [RL]/[R0], at 13.21 nM c-AMH [6]: 0.794
[NCT]/[R0], intact AMH complex bound (mAb-N1), estimate of [RL]/[R0], at 26.41 nM c-AMH [6]: 0.871
[NCT]/[R0], intact AMH complex bound (mAb-N1), estimate of [RL]/[R0], at 52.83 nM c-AMH [6]: 0.941
[R0]/K2 (second, bivalent binding step; dimensionless) [6]: 6
[R0]/K2 (second, bivalent binding step; dimensionless; fit of Figure 5C) [6]: 3.7
[R0]/K2 (second, bivalent binding step; dimensionless; fit of Figure 5D) [6]: 4.9
[RL+2RLR]/[R0], fraction-receptor occupancy, at 0.03 nM c-AMH [6]: 0.103
[RL+2RLR]/[R0], fraction-receptor occupancy, at 0.05 nM c-AMH [6]: 0.163
[RL+2RLR]/[R0], fraction-receptor occupancy, at 0.10 nM c-AMH [6]: 0.254
[RL+2RLR]/[R0], fraction-receptor occupancy, at 0.21 nM c-AMH [6]: 0.386
[RL+2RLR]/[R0], fraction-receptor occupancy, at 0.41 nM c-AMH [6]: 0.538
[RL+2RLR]/[R0], fraction-receptor occupancy, at 0.83 nM c-AMH [6]: 0.654
[RL+2RLR]/[R0], fraction-receptor occupancy, at 1.65 nM c-AMH [6]: 0.789
[RL+2RLR]/[R0], fraction-receptor occupancy, at 3.30 nM c-AMH [6]: 0.834
[RL+2RLR]/[R0], fraction-receptor occupancy, at 6.60 nM c-AMH [6]: 0.917
[RL+2RLR]/[R0], fraction-receptor occupancy, at 13.21 nM c-AMH [6]: 0.951
[RL+2RLR]/[R0], fraction-receptor occupancy, at 26.41 nM c-AMH [6]: 0.989
[RL+2RLR]/[R0], fraction-receptor occupancy, at 52.83 nM c-AMH [6]: 1
[RL+RLR]/[R0], fraction-maximal AMH binding, at 0.03 nM c-AMH [6]: 0.043
[RL+RLR]/[R0], fraction-maximal AMH binding, at 0.05 nM c-AMH [6]: 0.088
[RL+RLR]/[R0], fraction-maximal AMH binding, at 0.10 nM c-AMH [6]: 0.125
[RL+RLR]/[R0], fraction-maximal AMH binding, at 0.21 nM c-AMH [6]: 0.203
[RL+RLR]/[R0], fraction-maximal AMH binding, at 0.41 nM c-AMH [6]: 0.315
[RL+RLR]/[R0], fraction-maximal AMH binding, at 0.83 nM c-AMH [6]: 0.463
[RL+RLR]/[R0], fraction-maximal AMH binding, at 1.65 nM c-AMH [6]: 0.596
[RL+RLR]/[R0], fraction-maximal AMH binding, at 3.30 nM c-AMH [6]: 0.707
[RL+RLR]/[R0], fraction-maximal AMH binding, at 6.60 nM c-AMH [6]: 0.854
[RL+RLR]/[R0], fraction-maximal AMH binding, at 13.21 nM c-AMH [6]: 0.94
[RL+RLR]/[R0], fraction-maximal AMH binding, at 26.41 nM c-AMH [6]: 0.965
[RL+RLR]/[R0], fraction-maximal AMH binding, at 52.83 nM c-AMH [6]: 1.03
Substance: cleaved anti-Müllerian hormone (c-AMH), the noncovalent complex of the AMH prodomain with the AMH growth factor (from UniProt P03971 452-560)
